According to article PMC3832594, “The Neuroplastin Adhesion Molecules Are Accessory Proteins That Chaperone the Monocarboxylate Transporter MCT2 to the Neuronal Cell Surface” (PLoS ONE, 2013):

Biological target: T1, MCT2 tagged at its N-terminus with CFP (rat, UniProt Q63344 1-489)
T1 construct: Monocarboxylate transporter MCT2; also called MCT2-ECFP (N-terminal); MCT2-CFP; source: COS-7, transiently transfected (Fugene 6), in live cells; not shown: ECFP, N-terminal, kept
T1 sequence (looked up): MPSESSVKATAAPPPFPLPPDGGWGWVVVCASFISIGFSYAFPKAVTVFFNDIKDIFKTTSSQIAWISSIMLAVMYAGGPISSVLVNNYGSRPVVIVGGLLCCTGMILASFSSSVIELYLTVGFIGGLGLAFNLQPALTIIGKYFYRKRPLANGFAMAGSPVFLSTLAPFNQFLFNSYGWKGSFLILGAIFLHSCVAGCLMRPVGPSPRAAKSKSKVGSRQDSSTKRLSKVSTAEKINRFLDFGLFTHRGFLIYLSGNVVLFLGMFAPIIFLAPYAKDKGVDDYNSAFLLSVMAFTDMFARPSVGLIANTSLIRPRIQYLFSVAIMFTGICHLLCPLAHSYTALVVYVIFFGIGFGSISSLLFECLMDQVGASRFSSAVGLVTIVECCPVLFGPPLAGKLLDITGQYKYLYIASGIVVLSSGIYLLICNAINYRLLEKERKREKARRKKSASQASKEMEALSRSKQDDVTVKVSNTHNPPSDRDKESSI
Test: FRET or BRET; live COS-7 cells co-transfected with MCT2-ECFP (N-terminal) and np55- or np65-EYFP (C-terminal), 48 h after transfection; 37°C, imaging buffer pH 7.4; ratio of emission at 480 nm to 530 nm on excitation at 430 nm (MCT2-CFP alone 1.33±0.016)
Conditions: partners not purified

B1: np65 C-terminally labelled with YFP (natural protein)
chain: not shown
notes: Neuroplastin np65, the form with 3 Ig domains; also called np65-EYFP (C-terminal); np65-YFP; source: COS-7, transiently transfected (Fugene 6), in live cells; not shown: EYFP, C-terminal, kept
480:530 nm fluorescence emission ratio (FRET): 0.792
